This passage reports stoichiometry N and Kd results from PMC3911951, “Crystal Structure of Arginine Methyltransferase 6 from Trypanosoma brucei” (PLoS ONE, 2014).

Test [1] deals with Trypanosoma brucei arginine methyltransferase 6 (TbPRMT6), SAH-bound (Trypanosoma brucei). Briefly: ITC; AcH4-21 peptide (3 mM) injected into TbPRMT6 (100 uM) bound to SAH; MicroCal iTC200, 25 °C; 30 mM Tris pH 8.0, 100 mM NaCl, 1 mM EDTA; one-binding-site model. For orientation: In ITC the heat of successive injections is recorded.
Test [2] addresses Trypanosoma brucei arginine methyltransferase 6 (TbPRMT6) (Trypanosoma brucei). Briefly: SAXS; FL-TbPRMT6 at 1.0, 3.0 and 5.0 mg/ml in 30 mM Tris pH 8.0, 200 mM NaCl, 1 mM EDTA; molecular mass by SAXSMOW.
Test [3] has the same target. Briefly: ITC; 3 mM AcH4-21 peptide injected into 100 µM TbPRMT6 with SAH bound; 25°C; 30 mM Tris pH 8.0, 100 mM NaCl, 1 mM EDTA; one-binding-site model.

As a reminder, the stoichiometry N is a count of units in the complex or per binding partner. For “AcH4-21, peptide corresponding to the first 21 residues of bovine histone H4”, the stoichiometry N in test [1] amounted to 1.79.
In test [2], “Trypanosoma brucei arginine methyltransferase 6 (TbPRMT6) (enzyme)” showed a stoichiometry N of 2.
Usually Kd stands for a measure of binding affinity in units of concentration. A higher Kd goes with weaker binding. “peptide corresponding to the first 21 residues of bovine histone H4 (AcH4-21)”: the dissociation constant (Kd) in test [3] was found to be 45 µM.
